Test results published in the supplement of paper PMC10065799, “High-throughput profiling of sequence recognition by tyrosine kinases and SH2 domains using bacterial peptide display” (eLife, 2023).

Legend:
[1] = system: AncSZ; experiment: phosphorylation enrichment, bacterial display (enrichment ratio); higher = better substrate or ligand; peptides without Tyr show the background
[2] = molecular target: EPHB1 (UniProt P54762); experiment: as above
[3] = molecular target: EPHB2 (UniProt P29323); experiment: as above
[4] = molecular target: FGFR1 (UniProt P11362); experiment: as above
[5] = molecular target: FGFR3 (UniProt P22607); experiment: as above
[6] = system: Fer (mouse); experiment: as above
[7] = molecular target: Fes (UniProt P07332); experiment: as above
[8] = molecular target: Fyn (UniProt P06241); experiment: as above
[9] = molecular target: Hck (UniProt P08631); experiment: as above
[10] = molecular target: Jak2 (UniProt O60674); experiment: as above
[11] = molecular target: MERTK (UniProt Q12866); experiment: as above
[12] = system: c-Abl (mouse); experiment: as above
[13] = system: c-Src; experiment: as above
[14] = molecular target: Grb2 SH2 (UniProt P62993); experiment: SH2 binding enrichment of the phosphorylated peptide, bacterial display (enrichment ratio); higher = better substrate or ligand; peptides without Tyr show the background
[15] = molecular target: SHP2-C SH2; experiment: as above
[16] = molecular target: c-Src SH2; experiment: as above
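Wherever SH2 binding enrichment of the phosphorylated peptide, bacterial display is given: peptide library displayed on the E. coli surface as eCPX fusions, selected cells deep-sequenced, score is each peptide's frequency after selection divided by its frequency in the input.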
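Wherever phosphorylation enrichment, bacterial display is given: 11-residue human phosphosite peptides and single-mutation variants displayed on the E. coli surface, counted by deep sequencing, each peptide's frequency after selection divided by its frequency in the unselected input library; frequency after pTyr selection over input frequency; kinase dosed for 20-30% of maximal phosphorylation in three min.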

Chain of Fyn (P06241 whole entry, looked up): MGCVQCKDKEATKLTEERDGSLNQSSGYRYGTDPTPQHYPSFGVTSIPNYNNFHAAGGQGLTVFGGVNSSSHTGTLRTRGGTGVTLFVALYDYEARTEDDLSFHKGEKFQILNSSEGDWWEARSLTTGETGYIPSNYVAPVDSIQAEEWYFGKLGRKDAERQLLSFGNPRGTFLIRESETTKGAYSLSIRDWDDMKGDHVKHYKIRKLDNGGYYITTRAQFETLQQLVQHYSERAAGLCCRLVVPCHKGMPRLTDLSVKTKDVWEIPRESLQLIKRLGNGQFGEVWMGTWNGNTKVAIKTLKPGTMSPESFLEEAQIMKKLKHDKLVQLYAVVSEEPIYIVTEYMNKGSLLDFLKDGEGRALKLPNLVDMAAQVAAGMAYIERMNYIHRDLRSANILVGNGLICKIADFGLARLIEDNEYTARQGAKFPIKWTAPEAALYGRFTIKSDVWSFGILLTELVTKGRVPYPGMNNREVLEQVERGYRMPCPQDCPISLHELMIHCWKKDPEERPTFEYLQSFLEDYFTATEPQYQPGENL
Chain of Hck (P08631 whole entry, looked up): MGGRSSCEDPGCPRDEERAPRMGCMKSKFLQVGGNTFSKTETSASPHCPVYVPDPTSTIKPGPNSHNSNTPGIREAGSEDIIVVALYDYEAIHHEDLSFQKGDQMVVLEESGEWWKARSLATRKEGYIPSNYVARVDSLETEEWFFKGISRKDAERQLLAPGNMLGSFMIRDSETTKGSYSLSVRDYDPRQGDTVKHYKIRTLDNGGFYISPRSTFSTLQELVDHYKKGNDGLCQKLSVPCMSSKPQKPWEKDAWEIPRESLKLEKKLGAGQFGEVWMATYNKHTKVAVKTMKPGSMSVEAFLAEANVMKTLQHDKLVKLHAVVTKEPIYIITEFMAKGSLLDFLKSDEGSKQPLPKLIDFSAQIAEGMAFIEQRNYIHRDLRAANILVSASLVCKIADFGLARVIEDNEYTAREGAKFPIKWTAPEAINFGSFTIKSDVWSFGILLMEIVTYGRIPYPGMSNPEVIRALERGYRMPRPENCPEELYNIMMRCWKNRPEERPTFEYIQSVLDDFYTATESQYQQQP
Chain of MERTK (Q12866 whole entry, looked up): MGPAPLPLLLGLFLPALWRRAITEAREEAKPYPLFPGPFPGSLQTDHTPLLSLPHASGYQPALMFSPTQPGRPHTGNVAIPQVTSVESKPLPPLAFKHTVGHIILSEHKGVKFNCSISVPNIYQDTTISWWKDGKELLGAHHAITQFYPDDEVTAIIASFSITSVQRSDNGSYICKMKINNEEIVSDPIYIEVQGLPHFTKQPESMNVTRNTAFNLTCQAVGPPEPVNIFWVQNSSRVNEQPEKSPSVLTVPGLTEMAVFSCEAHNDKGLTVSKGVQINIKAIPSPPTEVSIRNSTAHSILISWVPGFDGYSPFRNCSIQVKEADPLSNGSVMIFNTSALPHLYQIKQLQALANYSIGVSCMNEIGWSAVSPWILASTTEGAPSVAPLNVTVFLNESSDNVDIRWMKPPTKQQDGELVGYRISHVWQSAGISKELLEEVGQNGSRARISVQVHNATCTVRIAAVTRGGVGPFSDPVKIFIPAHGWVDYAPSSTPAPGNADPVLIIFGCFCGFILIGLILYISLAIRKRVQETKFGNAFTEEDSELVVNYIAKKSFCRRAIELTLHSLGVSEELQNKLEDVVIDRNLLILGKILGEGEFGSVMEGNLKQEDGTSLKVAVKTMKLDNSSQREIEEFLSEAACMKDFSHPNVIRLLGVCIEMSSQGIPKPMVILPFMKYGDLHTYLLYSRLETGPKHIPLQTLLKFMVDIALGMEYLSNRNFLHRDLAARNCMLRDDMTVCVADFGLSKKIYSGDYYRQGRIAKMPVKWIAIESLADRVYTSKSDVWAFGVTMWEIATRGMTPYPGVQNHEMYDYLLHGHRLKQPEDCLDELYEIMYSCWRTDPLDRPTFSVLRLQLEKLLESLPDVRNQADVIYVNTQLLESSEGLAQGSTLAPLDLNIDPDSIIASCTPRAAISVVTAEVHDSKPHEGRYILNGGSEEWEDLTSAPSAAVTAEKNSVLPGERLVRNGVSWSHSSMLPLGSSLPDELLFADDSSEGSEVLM
Chain of Fes (P07332 whole entry, looked up): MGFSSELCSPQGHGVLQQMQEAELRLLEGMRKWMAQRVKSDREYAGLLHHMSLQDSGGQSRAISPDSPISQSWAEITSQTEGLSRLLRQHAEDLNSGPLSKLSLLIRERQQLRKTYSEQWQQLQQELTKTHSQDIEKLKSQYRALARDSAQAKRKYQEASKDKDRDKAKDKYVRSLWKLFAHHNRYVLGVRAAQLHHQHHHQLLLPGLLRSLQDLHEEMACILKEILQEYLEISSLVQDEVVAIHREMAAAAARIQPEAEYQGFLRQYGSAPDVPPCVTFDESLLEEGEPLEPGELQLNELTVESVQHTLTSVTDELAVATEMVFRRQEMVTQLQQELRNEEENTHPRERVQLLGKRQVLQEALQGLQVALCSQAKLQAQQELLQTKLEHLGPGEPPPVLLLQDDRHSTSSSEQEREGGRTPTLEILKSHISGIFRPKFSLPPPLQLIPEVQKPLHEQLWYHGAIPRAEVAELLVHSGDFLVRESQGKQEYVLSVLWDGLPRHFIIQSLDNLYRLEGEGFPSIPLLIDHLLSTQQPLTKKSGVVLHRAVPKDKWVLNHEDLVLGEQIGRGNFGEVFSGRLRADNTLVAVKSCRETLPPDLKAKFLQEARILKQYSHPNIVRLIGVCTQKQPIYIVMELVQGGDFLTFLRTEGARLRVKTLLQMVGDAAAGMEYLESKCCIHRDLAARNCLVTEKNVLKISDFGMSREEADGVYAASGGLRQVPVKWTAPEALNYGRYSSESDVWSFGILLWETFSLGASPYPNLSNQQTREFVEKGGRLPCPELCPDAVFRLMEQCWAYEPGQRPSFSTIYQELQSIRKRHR
Chain of EPHB2 (P29323 whole entry, looked up): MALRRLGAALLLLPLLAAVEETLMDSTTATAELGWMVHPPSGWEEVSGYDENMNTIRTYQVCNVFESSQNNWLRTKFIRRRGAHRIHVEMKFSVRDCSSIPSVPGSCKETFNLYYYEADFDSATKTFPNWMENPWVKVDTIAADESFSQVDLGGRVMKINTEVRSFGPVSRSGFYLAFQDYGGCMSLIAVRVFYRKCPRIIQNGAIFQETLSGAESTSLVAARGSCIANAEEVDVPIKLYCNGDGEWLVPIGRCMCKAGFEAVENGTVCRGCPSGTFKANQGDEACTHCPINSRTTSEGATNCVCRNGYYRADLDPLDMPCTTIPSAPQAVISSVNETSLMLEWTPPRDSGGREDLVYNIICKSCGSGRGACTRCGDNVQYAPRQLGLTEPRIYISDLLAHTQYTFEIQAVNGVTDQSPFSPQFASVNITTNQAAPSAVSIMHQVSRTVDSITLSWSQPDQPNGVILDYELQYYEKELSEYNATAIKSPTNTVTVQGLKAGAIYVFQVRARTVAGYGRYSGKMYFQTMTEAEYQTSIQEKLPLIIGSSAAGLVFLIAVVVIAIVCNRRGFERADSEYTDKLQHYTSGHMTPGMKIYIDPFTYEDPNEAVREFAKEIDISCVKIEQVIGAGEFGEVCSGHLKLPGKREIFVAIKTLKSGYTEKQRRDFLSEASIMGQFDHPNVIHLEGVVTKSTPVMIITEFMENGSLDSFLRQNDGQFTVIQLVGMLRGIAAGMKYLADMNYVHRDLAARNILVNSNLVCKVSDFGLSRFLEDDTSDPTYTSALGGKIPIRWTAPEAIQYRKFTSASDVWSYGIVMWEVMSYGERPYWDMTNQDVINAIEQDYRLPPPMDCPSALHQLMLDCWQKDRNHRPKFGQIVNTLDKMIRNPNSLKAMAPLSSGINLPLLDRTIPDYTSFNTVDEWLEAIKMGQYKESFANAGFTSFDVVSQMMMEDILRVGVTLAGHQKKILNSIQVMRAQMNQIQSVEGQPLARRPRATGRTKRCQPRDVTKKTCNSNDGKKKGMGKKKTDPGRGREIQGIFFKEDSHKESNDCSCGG
Chain of FGFR1 (P11362 whole entry, looked up): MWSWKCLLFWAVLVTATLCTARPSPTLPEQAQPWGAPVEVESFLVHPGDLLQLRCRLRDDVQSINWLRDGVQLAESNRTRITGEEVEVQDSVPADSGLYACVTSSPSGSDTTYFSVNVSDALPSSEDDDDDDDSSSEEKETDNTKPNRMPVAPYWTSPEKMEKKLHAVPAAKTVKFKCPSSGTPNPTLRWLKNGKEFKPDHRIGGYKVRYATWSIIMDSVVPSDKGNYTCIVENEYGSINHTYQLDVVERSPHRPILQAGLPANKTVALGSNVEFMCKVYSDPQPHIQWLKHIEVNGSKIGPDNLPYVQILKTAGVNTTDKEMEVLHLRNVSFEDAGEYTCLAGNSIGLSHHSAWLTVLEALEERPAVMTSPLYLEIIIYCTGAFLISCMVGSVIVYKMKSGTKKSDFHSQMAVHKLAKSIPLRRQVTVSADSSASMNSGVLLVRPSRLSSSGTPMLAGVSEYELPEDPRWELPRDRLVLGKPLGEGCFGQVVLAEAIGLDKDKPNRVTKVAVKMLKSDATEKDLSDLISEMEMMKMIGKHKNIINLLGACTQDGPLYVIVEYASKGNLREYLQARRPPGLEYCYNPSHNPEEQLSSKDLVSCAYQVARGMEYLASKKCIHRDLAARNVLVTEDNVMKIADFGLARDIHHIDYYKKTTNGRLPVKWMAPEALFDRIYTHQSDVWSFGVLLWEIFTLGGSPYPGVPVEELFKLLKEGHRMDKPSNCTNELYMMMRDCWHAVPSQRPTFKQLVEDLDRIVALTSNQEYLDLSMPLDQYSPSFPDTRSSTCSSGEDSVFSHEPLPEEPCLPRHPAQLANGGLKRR

| Sequence | SH2 binding enrichment [14] | SH2 binding enrichment [15] | SH2 binding enrichment [16] | phosphorylation enrichment [1] | phosphorylation enrichment [2] | phosphorylation enrichment [3] | phosphorylation enrichment [4] | phosphorylation enrichment [5] | phosphorylation enrichment [6] | phosphorylation enrichment [7] | phosphorylation enrichment [8] | phosphorylation enrichment [9] | phosphorylation enrichment [10] | phosphorylation enrichment [11] | phosphorylation enrichment [12] | phosphorylation enrichment [13] |
| --- | --- | --- | --- | --- | --- | --- | --- | --- | --- | --- | --- | --- | --- | --- | --- | --- |
| ASTDFYKRGDF [PDHA1_Y243_YF] | 0.614 | 0.611 | 0.5 | 0.719 | 0.374 | 0.375 | 0.413 | 0.431 | 0.475 | 0.795 | 0.325 | 0.39 | 0.749 | 0.345 | 0.515 | 0.52 |
| PSSRDYKDNIK [PIGN_Y227_H229D] | 1.16 | 0.449 | 0.394 | 0.556 | 0.595 | 0.467 | 0.614 | 0.614 | 0.407 | 0.649 | 0.496 | 0.381 | 0.9 | 0.727 | 0.47 | 0.569 |
| RRVLVYGGRGA [QDPR_Y16] | 0.608 | 0.683 | 0.407 | 1.1 | 0.488 | 0.822 | 0.357 | 0.702 | 0.716 | 0.681 | 0.563 | 0.597 | 0.361 | 0.549 | 0.575 | 0.674 |
| CDTKLYTSAPN [DNTTIP2_Y427] | 0.808 | 0.607 | 0.387 | 1 | 0.626 | 0.791 | 0.595 | 0.764 | 0.694 | 1.11 | 0.606 | 0.776 | 0.936 | 0.679 | 0.922 | 0.65 |
| LRLFSYSTTIR [CYP7B1_Y365_S363F] | 0.983 | 0.871 | 0.494 | 0.815 | 0.654 | 0.45 | 0.357 | 0.773 | 0.457 | 1.09 | 0.421 | 0.57 | 1 | 0.35 | 0.663 | 0.358 |
| DPEAAYTTRGG [EPHA3_Y779] | 0.872 | 0.588 | 0.357 | 0.629 | 0.466 | 0.385 | 0.376 | 0.507 | 0.45 | 0.717 | 0.531 | 0.468 | 0.652 | 0.374 | 0.559 | 0.475 |
| AFDNLYYWDQD [ERBB2_Y1221] | 0.807 | 0.698 | 0.446 | 2.31 | 5.88 | 4.41 | 9.23 | 9.6 | 3.07 | 2.42 | 6.31 | 5.36 | 1.55 | 7.32 | 0.81 | 5.67 |
| EEVKAYLDFGE [CHAC2_Y78_R82G] | 0.73 | 0.59 | 0.383 | 1.3 | 0.719 | 0.535 | 0.473 | 0.942 | 0.558 | 1.32 | 0.448 | 0.564 | 1.62 | 0.422 | 0.944 | 0.574 |
| LADKPYTFEDF [FXN_Y118_YF] | 1.1 | 0.954 | 0.708 | 2.9 | 1.43 | 1.86 | 2.21 | 2 | 1.96 | 2.52 | 7.15 | 1.26 | 0.988 | 1.39 | 0.738 | 3.9 |
| IVKAYYVHARA [AIPL1_Y268_R270H] | 1.25 | 1.95 | 0.823 | 0.857 | 0.567 | 0.533 | 0.538 | 0.633 | 0.574 | 0.978 | 0.424 | 0.595 | 0.818 | 0.572 | 0.663 | 0.432 |
| SVVVPYQPPEV [TP53_Y220_E221Q] | 0.969 | 0.696 | 0.535 | 0.728 | 0.645 | 0.51 | 0.494 | 0.596 | 0.467 | 0.918 | 0.399 | 0.445 | 0.784 | 0.383 | 1.51 | 0.44 |
| DSFATYFRRVL [H2BW1_Y84] | 0.797 | 0.584 | 0.373 | 1.35 | 0.607 | 0.677 | 0.496 | 0.703 | 0.426 | 1.2 | 0.472 | 0.82 | 1 | 0.448 | 0.798 | 0.532 |
| KATKGYLDDPT [G6PD_Y322_E317K] | 0.888 | 0.84 | 0.489 | 0.73 | 0.431 | 0.603 | 0.529 | 0.484 | 0.329 | 0.639 | 0.405 | 0.417 | 0.755 | 0.443 | 0.451 | 0.395 |
| KLQKYYRKNPD [EHHADH_Y683_Q685K] | 0.905 | 0.604 | 0.597 | 0.399 | 0.353 | 0.415 | 0.311 | 0.332 | 0.283 | 0.501 | 0.359 | 0.341 | 0.486 | 0.369 | 0.394 | 0.275 |
| MAPQMYESHLP [NCAPD2_Y6_F8S] | 0.76 | 0.495 | 0.71 | 0.501 | 0.548 | 0.702 | 0.477 | 0.657 | 9.41 | 0.555 | 0.45 | 0.568 | 0.524 | 0.466 | 0.437 | 0.378 |
| QFQEKYKQMEQ [HCN4_Y531_V534M_YF] | 0.844 | 0.956 | 0.472 | 1.24 | 0.608 | 0.576 | 0.654 | 1.05 | 0.502 | 1.87 | 0.93 | 1.53 | 1.36 | 0.554 | 0.976 | 0.366 |
| KRAIGYYSATS [FAM120A_Y327] | 0.864 | 0.821 | 1.41 | 0.477 | 0.366 | 0.387 | 0.412 | 0.389 | 0.383 | 0.472 | 0.456 | 0.406 | 0.439 | 0.55 | 0.437 | 0.359 |
| GLGVTYEQALA [MAP2_Y996] | 0.784 | 0.495 | 0.572 | 0.712 | 0.48 | 0.471 | 0.437 | 0.477 | 0.423 | 0.686 | 0.464 | 0.439 | 0.724 | 0.372 | 1.18 | 0.503 |
| PINLYYLMDLS [ITGB2_Y131_D128N] | 1.22 | 1.16 | 0.624 | 3.58 | 8.27 | 6.74 | 16.3 | 15.7 | 5.63 | 2.62 | 4.6 | 4.27 | 6.89 | 11.6 | 1.44 | 4.42 |
| PLDGEYVTLQI [TP53_Y327_F328V] | 0.615 | 0.498 | 0.349 | 1.56 | 0.802 | 0.789 | 1.75 | 1.57 | 0.609 | 1.32 | 0.984 | 0.922 | 1.37 | 0.477 | 1.17 | 0.919 |
| DFPIGYPSYLA [TBCK_Y153] | 0.9 | 0.534 | 0.458 | 0.722 | 0.406 | 0.457 | 0.481 | 0.55 | 0.582 | 0.902 | 0.438 | 0.422 | 0.829 | 0.463 | 0.619 | 0.501 |

Now from value to sequence, other results behind:

| SH2 binding enrichment [14] | SH2 binding enrichment [15] | SH2 binding enrichment [16] | Sequence | phosphorylation enrichment [1] | phosphorylation enrichment [2] | phosphorylation enrichment [3] | phosphorylation enrichment [4] | phosphorylation enrichment [5] | phosphorylation enrichment [6] | phosphorylation enrichment [7] | phosphorylation enrichment [8] | phosphorylation enrichment [9] | phosphorylation enrichment [10] | phosphorylation enrichment [11] | phosphorylation enrichment [12] | phosphorylation enrichment [13] |
| --- | --- | --- | --- | --- | --- | --- | --- | --- | --- | --- | --- | --- | --- | --- | --- | --- |
| 0.726 | 0.781 | 0.569 | SVVVPYEPHEV [TP53_Y220_P223H] | 1.05 | 0.716 | 0.615 | 0.542 | 0.835 | 1.38 | 1.25 | 0.54 | 0.577 | 1.18 | 0.493 | 0.803 | 0.513 |
| 0.784 | 0.766 | 0.569 | RGEKQYLATPL [ALOX12_Y295_A298T] | 0.861 | 0.598 | 0.342 | 1.06 | 0.711 | 0.571 | 1.01 | 0.665 | 0.484 | 0.931 | 0.53 | 1.02 | 0.812 |
| 0.902 | 0.961 | 0.612 | ADLVQYFMEHH [PTPN11_Y80_E76D_YF] | 1.1 | 0.654 | 0.545 | 0.501 | 0.708 | 0.46 | 1.06 | 0.784 | 0.53 | 1 | 0.394 | 0.8 | 0.517 |
| 0.982 | 0.886 | 0.715 | ASKEPYFVHCI [MYO1D_Y585_R588H_YF] | 0.846 | 1.05 | 0.481 | 0.583 | 0.882 | 0.56 | 0.881 | 0.503 | 0.475 | 0.675 | 0.427 | 0.611 | 0.523 |
| 0.863 | 0.641 | 0.464 | DVFVSYDFGKS [SORL1_Y139_YF] | 0.939 | 0.452 | 0.595 | 0.416 | 0.598 | 0.485 | 0.907 | 0.383 | 0.636 | 0.906 | 0.437 | 0.78 | 0.468 |
| 0.759 | 0.64 | 1.12 | IEENGYNTYAS [FGF10_Y161] | 1.02 | 0.534 | 0.593 | 0.562 | 0.674 | 0.49 | 1.12 | 0.606 | 0.645 | 0.802 | 0.422 | 0.64 | 0.6 |
| 1.21 | 1.27 | 1.18 | FLAVGYHKPHI [IDS_Y225] | 0.741 | 0.356 | 0.59 | 0.408 | 0.647 | 0.561 | 0.799 | 0.495 | 0.602 | 0.733 | 0.368 | 0.709 | 0.448 |
| 0.71 | 0.534 | 0.499 | IDAICYYRMEN [NPHS2_Y194] | 1.99 | 0.786 | 0.721 | 3.09 | 3.18 | 0.642 | 1.49 | 0.66 | 0.8 | 3.15 | 0.844 | 0.927 | 1.71 |
| 1.4 | 1.72 | 1.04 | SHNKFYMLVAR [MFSD8_Y134_YF] | 1.15 | 0.673 | 0.607 | 0.532 | 0.875 | 0.607 | 1.15 | 0.452 | 0.475 | 1.1 | 0.479 | 0.705 | 0.36 |
| 0.919 | 0.837 | 0.294 | GSIQQYIYKQE [PRG4_Y1271] | 0.651 | 0.425 | 0.567 | 0.507 | 0.539 | 0.398 | 0.644 | 0.522 | 0.439 | 0.811 | 0.433 | 0.486 | 0.752 |
| 0.966 | 0.733 | 0.666 | WVYNHYRWFIW [BRCA2_Y2624_I2627F] | 1.12 | 0.506 | 0.466 | 0.406 | 0.667 | 0.49 | 1.24 | 0.441 | 0.403 | 1.15 | 0.418 | 0.777 | 0.433 |
| 0.903 | 0.71 | 0.563 | FEGAIYRKDIG [GART_Y417_V421I] | 0.868 | 0.442 | 0.464 | 0.478 | 0.743 | 0.446 | 0.769 | 0.524 | 0.506 | 0.617 | 0.451 | 0.515 | 0.477 |
